# Measured values as given in US20210169980A1.
# Biological target: GABARAP (human) (UniProt O95166)
# Assay: ITC, GABARAP titrated into the peptide
# Sequence of GABARAP (human) (O95166 whole entry): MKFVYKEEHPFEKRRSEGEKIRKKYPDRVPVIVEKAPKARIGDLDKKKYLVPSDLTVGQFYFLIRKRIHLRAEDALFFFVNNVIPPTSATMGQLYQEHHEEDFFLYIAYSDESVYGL
substance,measurement,value
FAM134B LIR-L E462R (peptide),Kd,633 nM
